{"source": "patent US20220025381A1", "test_in_all_cases": "cell-based or functional assay", "key": {"[1]": {"target": "T1, CD376 PV1-RfxCas13d-566C-NLS-BGHpA", "T1 sequence": "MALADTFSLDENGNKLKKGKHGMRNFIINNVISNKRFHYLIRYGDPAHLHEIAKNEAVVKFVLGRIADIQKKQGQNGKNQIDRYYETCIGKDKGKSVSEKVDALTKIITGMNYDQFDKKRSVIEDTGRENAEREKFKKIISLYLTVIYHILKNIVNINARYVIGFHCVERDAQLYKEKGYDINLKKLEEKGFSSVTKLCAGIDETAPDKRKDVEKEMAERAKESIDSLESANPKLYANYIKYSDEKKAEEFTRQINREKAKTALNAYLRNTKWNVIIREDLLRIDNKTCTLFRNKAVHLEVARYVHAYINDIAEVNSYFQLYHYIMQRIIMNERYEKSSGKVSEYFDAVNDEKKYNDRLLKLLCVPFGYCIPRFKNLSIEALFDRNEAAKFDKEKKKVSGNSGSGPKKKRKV"}, "[2]": {"target": "T2, CD380 PV1-RfxCas13d-656C-NLS-BGHpA", "T2 sequence": "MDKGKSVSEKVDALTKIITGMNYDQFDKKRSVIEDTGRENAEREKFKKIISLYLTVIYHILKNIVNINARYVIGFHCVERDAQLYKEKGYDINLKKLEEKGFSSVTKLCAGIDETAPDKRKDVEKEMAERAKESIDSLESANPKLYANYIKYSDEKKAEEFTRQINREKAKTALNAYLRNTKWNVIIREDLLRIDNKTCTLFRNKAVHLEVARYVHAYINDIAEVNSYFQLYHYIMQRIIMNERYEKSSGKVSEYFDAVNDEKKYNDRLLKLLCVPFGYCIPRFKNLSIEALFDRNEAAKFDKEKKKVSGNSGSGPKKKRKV"}, "[3]": {"target": "T3, CD400 PV1-GAI-L1-RfxCas13d-264C-NLS-BGHpA", "T3 sequence": "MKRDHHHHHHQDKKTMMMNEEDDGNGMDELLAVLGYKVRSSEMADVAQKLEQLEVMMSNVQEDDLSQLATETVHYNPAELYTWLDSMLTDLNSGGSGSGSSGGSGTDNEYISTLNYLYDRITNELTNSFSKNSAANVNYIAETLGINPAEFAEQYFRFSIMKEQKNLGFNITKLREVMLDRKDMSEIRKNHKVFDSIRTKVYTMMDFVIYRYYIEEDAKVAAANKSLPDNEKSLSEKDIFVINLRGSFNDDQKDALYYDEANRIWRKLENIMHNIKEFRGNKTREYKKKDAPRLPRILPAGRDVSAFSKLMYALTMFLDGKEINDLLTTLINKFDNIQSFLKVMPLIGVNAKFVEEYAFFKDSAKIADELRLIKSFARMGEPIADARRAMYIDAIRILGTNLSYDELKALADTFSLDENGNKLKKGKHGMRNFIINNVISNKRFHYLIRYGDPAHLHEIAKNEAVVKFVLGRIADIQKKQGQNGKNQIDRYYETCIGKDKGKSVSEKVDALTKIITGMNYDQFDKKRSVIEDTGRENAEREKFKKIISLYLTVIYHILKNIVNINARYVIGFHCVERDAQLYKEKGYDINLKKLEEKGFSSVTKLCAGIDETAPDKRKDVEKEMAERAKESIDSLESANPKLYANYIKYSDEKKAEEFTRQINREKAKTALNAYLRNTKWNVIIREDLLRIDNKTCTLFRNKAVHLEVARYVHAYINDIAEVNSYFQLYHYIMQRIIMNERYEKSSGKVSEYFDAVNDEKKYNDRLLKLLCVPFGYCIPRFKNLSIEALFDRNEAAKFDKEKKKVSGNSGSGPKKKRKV"}}}
{"binder": "CD375 PV1-RfxCas13d-N565-NLS-BGHpA (protein) MIEKKKSFAKGMGVKSTLVSGSKVYMTTFAEGSDARLEKIVEGDSIRSVNEGEAFSAEMADKNAGYKIGNAKFSHPKGYAVVANNPLYTGPVQQDMLGLKETLEKRYFGESADGNDNICIQVIHNILDIEKILAEYITNAAYAVNNISGLDKDIIGFGKFSTVYTYDEFKDPEHHRAAFNNNDKLINAIKAQYDEFDNFLDNPRLGYFGQAFFSKEGRNYIINYGNECYDILALLSGLRHWVVHNNEEESRISRTWLYNLDKNLDNEYISTLNYLYDRITNELTNSFSKNSAANVNYIAETLGINPAEFAEQYFRFSIMKEQKNLGFNITKLREVMLDRKDMSEIRKNHKVFDSIRTKVYTMMDFVIYRYYIEEDAKVAAANKSLPDNEKSLSEKDIFVINLRGSFNDDQKDALYYDEANRIWRKLENIMHNIKEFRGNKTREYKKKDAPRLPRILPAGRDVSAFSKLMYALTMFLDGKEINDLLTTLINKFDNIQSFLKVMPLIGVNAKFVEEYAFFKDSAKIADELRLIKSFARMGEPIADARRAMYIDAIRILGTNLSYDELKPKKKRKV", "values": [{"measurement": "gRNA induced knockdown of mCherry without CID domains", "setting": "[1]", "result": "< 80", "unit": "%"}]}
{"binder": "CD379 PV1-RfxCas13d-N655-NLS-BGHpA (protein) MIEKKKSFAKGMGVKSTLVSGSKVYMTTFAEGSDARLEKIVEGDSIRSVNEGEAFSAEMADKNAGYKIGNAKFSHPKGYAVVANNPLYTGPVQQDMLGLKETLEKRYFGESADGNDNICIQVIHNILDIEKILAEYITNAAYAVNNISGLDKDIIGFGKFSTVYTYDEFKDPEHHRAAFNNNDKLINAIKAQYDEFDNFLDNPRLGYFGQAFFSKEGRNYIINYGNECYDILALLSGLRHWVVHNNEEESRISRTWLYNLDKNLDNEYISTLNYLYDRITNELTNSFSKNSAANVNYIAETLGINPAEFAEQYFRFSIMKEQKNLGFNITKLREVMLDRKDMSEIRKNHKVFDSIRTKVYTMMDFVIYRYYIEEDAKVAAANKSLPDNEKSLSEKDIFVINLRGSFNDDQKDALYYDEANRIWRKLENIMHNIKEFRGNKTREYKKKDAPRLPRILPAGRDVSAFSKLMYALTMFLDGKEINDLLTTLINKFDNIQSFLKVMPLIGVNAKFVEEYAFFKDSAKIADELRLIKSFARMGEPIADARRAMYIDAIRILGTNLSYDELKALADTFSLDENGNKLKKGKHGMRNFIINNVISNKRFHYLIRYGDPAHLHEIAKNEAVVKFVLGRIADIQKKQGQNGKNQIDRYYETCIGKPKKKRKV", "values": [{"measurement": "gRNA induced knockdown of mCherry without CID domains", "setting": "[2]", "result": "< 80", "unit": "%"}]}
{"binder": "CD399 PV1-RfxCas13d-N263-L1-GID-NLS-BGHpA (protein) MIEKKKSFAKGMGVKSTLVSGSKVYMTTFAEGSDARLEKIVEGDSIRSVNEGEAFSAEMADKNAGYKIGNAKFSHPKGYAVVANNPLYTGPVQQDMLGLKETLEKRYFGESADGNDNICIQVIHNILDIEKILAEYITNAAYAVNNISGLDKDIIGFGKFSTVYTYDEFKDPEHHRAAFNNNDKLINAIKAQYDEFDNFLDNPRLGYFGQAFFSKEGRNYIINYGNECYDILALLSGLRHWVVHNNEEESRISRTWLYNLDKNLSGGSGSGSSGGSGTMAASDEVNLIESRTVVPLNTWVLISNFKVAYNILRRPDGTFNRHLAEYLDRKVTANANPVDGVFSFDVLIDRRINLLSRVYRPAYADQEQPPSILDLEKPVDGDIVPVILFFHGGSFAHSSANSAIYDTLCRRLVGLCKCVVVSVNYRRAPENPYPCAYDDGWIALNWVNSRSWLKSKKDSKVHIFLAGDSSGGNIAHNVALRAGESGIDVLGNILLNPMFGGNERTESEKSLDGKYFVTVRDRDWYWKAFLPEGEDREHPACNPFSPRGKSLEGVSFPKSLVVVAGLDLIRDWQLAYAEGLKKAGQEVKLMHLEKATVGFYLLPNNNHFHNVMDEISAFVNAECPKKKRKV", "values": [{"measurement": "knockdown efficiency of mCherry with gibberellin and gRNA", "setting": "[3]", "result": "> 60", "unit": "%"}]}
